What follows are sequences tested on Escherichia coli TOP10 (assay: shrunken log2 fold change of peptide-encoding DNA abundance (4.5 h post-induction vs induction); higher = less antimicrobial activity (less host growth inhibition)). Settings: time post-induction: 4.5 h; library: site-saturation at positions 5, 18, 19, 20.
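Note: peptides expressed intracellularly from a pBAD plasmid library in pooled LB shake-flask culture, induced with 0.3% L-arabinose, DNA abundance read by NGS, three biological replicates, DESeq2 with apeglm shrinkage.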

Sequence	shrunken log2 fold change
RRIRERPPRLPRPRPRPCISPRP	-0.218
RRIRKRPPRLPRPRPRPISQPRP	0.113
RRIRVRPPRLPRPRPRPRSAPRP	0.258
RRIRSRPPRLPRPRPRPIYFPRP	-0.397
RRIRHRPPRLPRPRPRPYEDPRP	-0.336
RRIRARPPRLPRPRPRPFMMPRP	-0.105
RRIRVRPPRLPRPRPRPELMPRP	-0.0669
RRIRMRPPRLPRPRPRPKWDPRP	0.68
RRIRFRPPRLPRPRPRPCPEPRP	-0.2
RRIRHRPPRLPRPRPRPQALPRP	-0.278
RRIRFRPPRLPRPRPRPFVSPRP	-0.296
RRIRSRPPRLPRPRPRPWVHPRP	-0.221
RRIRWRPPRLPRPRPRPLVMPRP	0.000565
RRIRGRPPRLPRPRPRPFTFPRP	-0.0577
RRIRWRPPRLPRPRPRPNAVPRP	0.259
RRIRPRPPRLPRPRPRPWHQPRP	0.0649
RRIRERPPRLPRPRPRPIRNPRP	-0.343
RRIRKRPPRLPRPRPRPIKQPRP	-0.089
RRIRHRPPRLPRPRPRPCGGPRP	-0.0282
RRIRCRPPRLPRPRPRPTPPPRP	0.807
RRIRRRPPRLPRPRPRPPRFPRP	1.17
RRIRTRPPRLPRPRPRPEFNPRP	0.085

Sequence	shrunken log2 fold change
RRIRVRPPRLPRPRPRPFIIPRP	-0.442
RRIRERPPRLPRPRPRPGNKPRP	-0.00852
RRIRVRPPRLPRPRPRPGHCPRP	0.258
RRIRVRPPRLPRPRPRPNDAPRP	-0.231
RRIRDRPPRLPRPRPRPWDVPRP	-0.00145
RRIRVRPPRLPRPRPRPHLVPRP	-0.133
RRIRTRPPRLPRPRPRPIPKPRP	0.103
RRIRQRPPRLPRPRPRPATCPRP	-0.0483
RRIRLRPPRLPRPRPRPETKPRP	0.00291
RRIRARPPRLPRPRPRPNRMPRP	0.0574
RRIRWRPPRLPRPRPRPIYRPRP	0.0155
RRIRQRPPRLPRPRPRPNWSPRP	0.148
RRIRRRPPRLPRPRPRPNSWPRP	-0.0571
RRIRGRPPRLPRPRPRPDDLPRP	0.0487
RRIRQRPPRLPRPRPRPCANPRP	0.00875
RRIRIRPPRLPRPRPRPDYQPRP	-0.611
RRIRVRPPRLPRPRPRPNLAPRP	0.0958
RRIRDRPPRLPRPRPRPLPRPRP	0.391
RRIRYRPPRLPRPRPRPGATPRP	0.128
RRIRVRPPRLPRPRPRPRMHPRP	0.151
RRIRARPPRLPRPRPRPMMRPRP	1.22
RRIRFRPPRLPRPRPRPMTGPRP	-0.0757

Sequence	shrunken log2 fold change
RRIRDRPPRLPRPRPRPHQKPRP	0.365
RRIRRRPPRLPRPRPRPHAKPRP	0.0278
RRIRYRPPRLPRPRPRPEDGPRP	-0.141
RRIRVRPPRLPRPRPRPHKNPRP	-0.301
RRIRWRPPRLPRPRPRPWMNPRP	-0.287
RRIRIRPPRLPRPRPRPVGGPRP	0.0792
RRIRLRPPRLPRPRPRPISFPRP	-0.158
RRIRWRPPRLPRPRPRPSMGPRP	0.033
RRIRPRPPRLPRPRPRPVKAPRP	0.216
RRIRNRPPRLPRPRPRPNPYPRP	-0.151
RRIRSRPPRLPRPRPRPSPKPRP	0.0583
RRIRDRPPRLPRPRPRPHQSPRP	0.0679
RRIRMRPPRLPRPRPRPIVEPRP	0.456
RRIRKRPPRLPRPRPRPPYGPRP	0.156
RRIRTRPPRLPRPRPRPYPVPRP	0.154
RRIRARPPRLPRPRPRPIAWPRP	0.442
RRIRNRPPRLPRPRPRPNIKPRP	-0.641
RRIRHRPPRLPRPRPRPDFGPRP	-0.156
RRIRRRPPRLPRPRPRPCFTPRP	-0.156
RRIRFRPPRLPRPRPRPWYHPRP	-0.14
RRIRNRPPRLPRPRPRPWHYPRP	-0.25
RRIRHRPPRLPRPRPRPCIYPRP	-0.196

Sequence	shrunken log2 fold change
RRIRSRPPRLPRPRPRPKSVPRP	-0.0236
RRIRWRPPRLPRPRPRPMPFPRP	-0.133
RRIRGRPPRLPRPRPRPLLYPRP	0.473
RRIRKRPPRLPRPRPRPMTCPRP	0.0478
RRIRVRPPRLPRPRPRPLQCPRP	-0.371
RRIRPRPPRLPRPRPRPPGRPRP	0.567
RRIRLRPPRLPRPRPRPGIHPRP	-0.322
RRIRVRPPRLPRPRPRPNLLPRP	-0.22
RRIRTRPPRLPRPRPRPCCTPRP	-0.0782
RRIRLRPPRLPRPRPRPAPRPRP	0.816
RRIRIRPPRLPRPRPRPQDRPRP	-0.007
RRIRIRPPRLPRPRPRPYAGPRP	-0.417
RRIRCRPPRLPRPRPRPHRFPRP	-0.0713
RRIRARPPRLPRPRPRPCMVPRP	-0.0554
RRIRLRPPRLPRPRPRPQNNPRP	-0.585
RRIRIRPPRLPRPRPRPIKLPRP	-0.289
RRIRERPPRLPRPRPRPCHWPRP	-0.0135
RRIRNRPPRLPRPRPRPPQGPRP	0.192
RRIRPRPPRLPRPRPRPGAEPRP	0.798
RRIRVRPPRLPRPRPRPRWWPRP	0.0125
RRIRFRPPRLPRPRPRPTQMPRP	0.149
RRIRLRPPRLPRPRPRPCNSPRP	0.165

Sequence	shrunken log2 fold change
RRIRIRPPRLPRPRPRPGTNPRP	-0.314
RRIRGRPPRLPRPRPRPWGSPRP	0.268
RRIRHRPPRLPRPRPRPYPHPRP	-0.495
RRIRSRPPRLPRPRPRPWVRPRP	0.0976
RRIRPRPPRLPRPRPRPWRCPRP	0.199
RRIRNRPPRLPRPRPRPGSVPRP	-0.0436
RRIRCRPPRLPRPRPRPVQVPRP	-0.164
RRIRQRPPRLPRPRPRPFWMPRP	0.00494
RRIRARPPRLPRPRPRPELNPRP	0.746
RRIRIRPPRLPRPRPRPLLMPRP	-0.489
RRIRWRPPRLPRPRPRPRRQPRP	-0.0653
RRIRRRPPRLPRPRPRPHQRPRP	0.14
RRIRPRPPRLPRPRPRPHTKPRP	0.00533
RRIRPRPPRLPRPRPRPCSFPRP	-0.109
RRIRPRPPRLPRPRPRPWAIPRP	-0.0391
RRIRPRPPRLPRPRPRPSGPPRP	-0.174
RRIRPRPPRLPRPRPRPEVSPRP	0.0949
RRIRVRPPRLPRPRPRPLHPPRP	0.149
RRIRFRPPRLPRPRPRPYHLPRP	-0.643
RRIRKRPPRLPRPRPRPFPSPRP	0.175
RRIRKRPPRLPRPRPRPRMWPRP	0.377

Reference: the supplement of paper PMC9112550, “Optimization of the antimicrobial peptide Bac7 by deep mutational scanning” (BMC Biology, 2022)
